Measured values taken from the DeepSol protein solubility set.

Assay: soluble on expression in E. coli; label from the status in PepcDB or PDB records
With “MSLAFDTLFLNARFDGGTRHHIAVKDGRIAAITSVDQPPAGAETIDLKDALVVPGFVEGHIHLDTSFYGDAWRPHKPCADGFNVHERVAFQAQNMAEAAPMDVRARNQLDLCIGHGTTQMRSHVIVDGSVGLKSLETILRVREEYNGLIDIQLVAFPQSGILSSPGTAQLLDEAIGLGANLVGGLDPASFDRDVEKHLDVVFGVANKHGVDIDIHLHDMGTLGAFEIEQIAARTRALGMEGRVAVSHAYGLGDIPADYLKKVAEILARSGVAIMTNAPGARPFPPILALRNAGVTVFSGNDNIRDSWWPYGDGDMLRRATTLGYRSGFNIDEELRAAFDVVTASGAKALRLEGYGLRIGAKADFVALNAEHVPEAVVAVPQGRSVYKDGRLVAANGRIVGKSGEGHHHHHH” the “soluble on expression in E. coli” value was “not soluble”.
In the case of “MSLAFYIATFDIGTTEVKAALADRDGGLHFQRSIALETYGDGNGPVEQDAGDWYDAVQRIASSWWQSGVDARRVSAIVLSGQMQNFLPLDQDHEPLHRAVLYSDKRPLKEAEEINARHGADNLWSALENPMTAASILPKLVFWRASFPQAFGRLRHVVLGAKDYVVLRLTGRHATDRTNASTTGLYRPKDDAWHVELLADYGFSLDLMPRLLEPGEQVGGVSALAARQTGFVSGTPVLCGLGDAGAATLGVGVLDDEDAYLHLGTTGWLARLTQTDPVGDMPVGTIFRLAGIIAGKTLQVAPVLNAGNILQWALTLVGHRPGEDCAEYFHMAAAEVQGVTVPDGLLFVPYLHAERCPVELPAPRGALLGVTGATTRAQILLAVLEGAALSLRWCAELLGMEKVGLLKVVGGGARSEAWLRMIADNLNVSLLVKPDAHLHPLRGLAALAAVELEWSHSIQDFLREADLREPASNILHPQPCDEGRRRRKFERFKQCVETLGRLDEGHHHHHH”, the “soluble on expression in E. coli” value is reported as “soluble”.
With “MSLAKILVIDDESTILQNIKFLLEIDGNEVLTASSSTEGLRIFTENCNSIDVVITDMKMPKLSGMDILREIKKITPHMAVIILTGHGDLDNAILAMKEGAFEYLRKPVTAQDLSIAINNAINRKKLLMENERMTQELLAHRNYLQGLHDSAAKILLNMLPKNLPDIEGFNFAVDYKSCDGVGGDMYDVCDIGDYICFYVFDVSHHGILAAVISIIIKSFLQNIEYNYRQGINKRRFPEIVLDLNLELLSNTAQNVFASLFLGFIDKNSKKLYTVSAGHIPQYIMKENGLVPLESTGPILGVFEDSTYKCAVNQLEPGDKVLLFTDGIIESPSDSSDESSDGNQIFGYENMVKVLESCKNEPISTTIDKIMKAVKDFSGNRCTDDMTILGVEVLKENEGHHHHHH” the “soluble on expression in E. coli” value was “soluble”.
With “MSLAKVLVIDEDRSTLARLELLLTKDGYETVTASTGTDGLNRYVERYPDLVILDVFLSDVGGFTVLEELLEENEQAMVILMTAQLDMETAIRAMKLGAFDYVPKTADMAELLSVVHKASNTLETDRQQGGLSGEAFRNYKAGDIIGAGREMREIFKMVGVLSRSRATVLIEGESGTGKELVAKVIHKHTSSNEPFIAVNCSAIVETLLESELFGHEKGSFTSAFNRQLGKFELGRYGTVFLDEISEMSINLQAKLLRVLQEMEFERVGGKDKIQVHARIITATNKNLRTLVREGKFRADLYYRLNIVSLKIPPLRERQEDIPLLVNHLIAKIGRDLSRRISGVSEEVMEAFLRYTWPGNVRELENLLVRAGVMAKGRILDKSDFPELFKESGEGHHHHHH” the “soluble on expression in E. coli” value was “not soluble”.
In the case of “MSLALNLSKAVVGYLQVRPEEKFTARQIAEWVFATYPAECQEKRANSRGDYIKSDADLVQQLVAEISSQRPRMQMKHPALKTTEGRPRKYYYSEKSDSAEVAAAEGEGATAAADIGTSMLDEHALYPLLSQYLWEEFGVFSKRINEKRSSNKRGPNGNRWLYPDMVGMQDLGADWHREVRDCVKQYSDKRTKLWSFEVKLLINRSNIRECFFQAVSNSSWSNFGYLVAAEVSGQETLKELRMLFAAHGIGFIRLDVDNPADSQVLIPARERDAIDWDMANRLATENRDFLNYVKQVKQFYQTGEARFKDWDVPEEYSIQEGHHHHHH”, the “soluble on expression in E. coli” value is reported as “soluble”.
In the case of “MSLALPDFEFSFATRDEFDRKPVAKKLINILNSNIDISPMVIDGSWGTGKTEFCRKTIKLINDEFNETLICAYIDAFEADHTNDPLIPIVAAISELIEDSSKKIAFLNKAKAIFRYGLKASARASVAWLLRSNTETLDQEFQKELEKAVDEGSQNLVDGVITDYQEAKKDINSLKLILQDLTVEKKLVIFIDELDRCKPDFAIAIIEKIKHVFDVANVKFILVTNYTQMKASVNHCYGLALDAHRYLDKFIKFKFYLPTDKYSNKRKQHVSYHYADQLIRNSDILKAHSRYYLDSRFDLLNNLIIINELSLREISNFILYLELFHTLKSDQFAPDKWYHLSIFIIFILYFKPELREKIRKKDILASELCKFLGINSHIKAKELTHDKDGVSRDIATLIMIFLNDNSIPGYQSDDEEDFKGWLSKLALSTNVGYLELITYIEQFINDIFNEFQFVTKAAALEHHHHHH”, the “soluble on expression in E. coli” value is reported as “soluble”.
For “MSLAPRPRILICEDDPDIARLLNLMLEKGGFDSDMVHSAAQALEQVARRPYAAMTVDLNLPDQDGVSLIRALRRDSRTRDLAIVVVSANAREGELEFNSQPLAVSTWLEKPIDENLLILSLHRAIDNMAEGKPRILHVEDDLDIQRIAAAIAQNFATFEFACTLQEARDQLASHHYDLVLLDLTLKDGSGWELLSTIEALDPAPPVVVFSASKLNMMESQRVEAVLVKADTSNEELIRVLQRVLDDSLWGTVDSPLSEGHHHHHH”, the “soluble on expression in E. coli” value was “soluble”.
With “MSLAQFYSAKRRTTTRQIITVSVNDLDSFGQGVARHNGKTLFIPGLLPQENAEVTVTEDKKQYARAKVVRRLSDSPERETPRCPHFGVCGGCQQQHASVDLQQRSKSAALARLMKHDVSEVIADVPWGYRRRARLSLNYLPKTQQLQMGFRKAGSSDIVDVKQCPILAPQLEALLPKVRACLGSLQAMRHLGHVELVQATSGTLMILRHTAPLSSADREKLERFSHSEGLDLYLAPDSEILETVSGEMPWYDSNGLRLTFSPRDFIQVNAGVNQKMVARALEWLDVQPEDRVLDLFCGMGNFTLPLATQAASVVGVEGVPALVEKGQQNARLNGLQNVTFYHENLEEDVTKQPWAKNGFDKVLLDPARAGAAGVMQQIIKLEPIRIVYVSCNPATLARDSEALLKAGYTIARLAMLDMFPHTGHLESMVLFSRVKEGHHHHHH” the “soluble on expression in E. coli” value was “soluble”.
For “MSLAQKRYKHILWDLDGTIIDSKIGVSESIRYCLKYFNIEVTCLDEFKPMIGPPLQDSLREIYNFSPQQVEIACKLYDEYYMKKGIHEYKVFQNIEKVLSQLQNDNKELYVATTKPEYAAKQLLADCKLDTYFKFIGGDNEEFTRSNKADVIQYVLSANNISATDNVVMIGDRKYDMLAAKKIGIDTIGVLYGYGDRNELLTNGAQYIIEEPYELLNLLKGEGHHHHHH”, the “soluble on expression in E. coli” value was “soluble”.
With “MSLAQLIFDEEKVTSVIDRIVKRTFQMDFAWDWPGGVAFYGVAEAYEATENEEYINLLKTWVDEQLEDGLPPLSINGVSIGHTLLFLHKVTGDDVYLETAAEMAEYVLHKAPRFGEGILQHTVNAAEYVFPEQAWADTLMMAGLFMLRIGRVMEREDYFEDGLRQFHGHEDVLQDPVTNLYYHAWDNKAQNHLSGIYWGRANGWAALTMAKALPLIEVTHPSFMIIDGSLRDQLSALVRLQDESGLWHTILDDPDSYLEVSASAGIASALMSSGKLYTKYVQKSLAAILDAVEEDGRVSRVSAGTAVMKNAEGYKQVPYKRIQGWGQGLALTFLADVLKTKKRLYQEGHHHHHH” the “soluble on expression in E. coli” value was “soluble”.
For “MSLAQTQLSYKNKTYQISYEILGDLSLPQILILHGWGADKKLMKQSFCPFLKDFCQIYMDLAGFGNSSVEEILNTQDYANITELFLKQKKLNVCFFMGHSFGGKVSTLLAKEKDTLILLSSAGILAKKSLKVRFKIRIFKILKLFGLGKFYRYFASKDGANLSPIMYETFKKVVDEDFSEIFAKQKAKSLIFWGKSDEATPLYCGEKMHQFLKNSTFYPLEGDHFFFLKHSAFIAQKIKEEGHHHHHH”, the “soluble on expression in E. coli” value was “soluble”.
In the case of “MSLARARMKERGVEVSDIAELVFFLQKKYHPDLTIDECTLNVNRVLAKREVQNAILTGIELDVLAEQKKLSEPLQTMLEIDESLYGVDEVLAFSIVNIYGSIGFTNYGYIDKEKPGILKRLNDKSTGECHTFLDDIVGAISAAASSRLAHREGHHHHHH”, the “soluble on expression in E. coli” value is reported as “not soluble”.
With “MSLARHEAIVEPAQSTHTSGAHTSGAQAQPGVRPTTAAGRWRDVEMMAYKQDDAAPFRDVTRQLLFSDPRLACEWRYFEVAAGGYSTLEKHDHVHGVMIHRGKGQCLVGHHVSDVAVGDLVFIPPQTWHQFRANAGDVLGFLCLVNAERDRPQLPGDGDLAALRADPAIADFLSSEGHHHHHH” the “soluble on expression in E. coli” value was “soluble”.
For “MSLARPLSFHEDRLFPSDPATRSYARGLYALVKDLPIISPHGHTDPSWFATNAPFQDATDLLLAPDHYLFRMLYSQGVSLDALKVRSKAGVPDTDPREAWRVFASHFYLFRGTPSWVWLNHVFSQVFGFTEFLEASNADDYFDRITAALATDAFRPRALFDRFNIETLATTEGPHESLQHHAAIRESGWGGHVITAYRPDAVIDFEDERSPRAFERFAETSGQDVYSWKSYLEAHRLRRQAFIDAGATSSDHGHPTAATADLSDVEAEALFNSLVKGDVTPEKAELFRAQMLTEMAKMSLDDGLVMQIHPGSHRNHNVGLLNSHGRDKGADIPMRTEYVDALKPLLTRLGNDPRLSIILFTLDETTYSRELAPLAGHYPVLKLGPSWWFHDSPEGMMRFREQVTETAGFYNTVGFNDDTRAFLSIPARHDVARRVDSAFLARMVAEHRMDLVEAEELIVDLTYNLPKKAYKLDQRPDWARPATLRAAAEEGHHHHHH”, the “soluble on expression in E. coli” value was “soluble”.
For “MSLASAMASSALREATCTMTRLAADVAASVSSIFSCKDSAGPRPVVPATKTTSTPLDVMFFTWFAKSSGSSLPPLKVVMTGATISIDSTRGALKKLARKGIKGWLNQYMATIKEIEPIVLYEQETDARWASYSILVRVVTSDGRVSYGEAVPTLRILPVVSAVRQTARAFLGRDPHEISAAFYEWYRQDFFLSRSFESATALSAIDMALWDLKARELGAPLYELLGGKLRDRVKVYANGWYGGCRDPQCFAEKAKEVVARGYDALKFDPFGPSFNSITSEELRRAEEAVAAVRDAVGDDVDILIEHHGRFNANAAVEIAKRFEPYRPYFMEEPLHHEDIEGYRKYRSLTSARIAMGERLISAKEALQYLVEGLVDVIQPDACNIGGVTGSMKVAALAEAFSVEVSYHNAYGPVQFALEVQLSAVTPTLYRLESFYDYWPQWKRDLIGDPFRLSQSSVEVPRGPGIGVAVNERVLEKYRAEPSEIPVGEEPVWVVRGTWREGHHHHHH”, the “soluble on expression in E. coli” value was “not soluble”.
In the case of “MSLASIRDIARQAEVSPGTVSRVLNNDPTLSVAKETRTRIHQIAQALQYEKVTRKNKRIQIITYASREKEMSDPYYREIRLAIEAEVKRLNLSLKRTIRIDGQQDHIDLNKIENAGAIIVIGNFSVDALNKLKTHNANMVVINNPNTPKSIDAVYSDLDDAMTELLNRILDKGLTKIAYIGGHHTIRELNGITTTNAADVRYQAYQSWCEKHDVEEIVLLNGWGKTQGEDAVKVYLESDHAFPQVFIAGNDMIAIGILQQLQLNKKAIPEEVKLISFNDLEVIQYAVPSISSVHIPVDEFGRTAVRMAEERINNTRQIAIHVVVEAQLKARNTFKVEGHHHHHH”, the “soluble on expression in E. coli” value is reported as “soluble”.
In the case of “MSLASLCDLVGLPRSSFYRQSVFKVLEDQECETELRHQMQLICLEMPGYSYRRITAELHRRGWPVNHKRVLRLMRQDNLLCLRRKAFVRTTDSEHGFRVYPNLATNLMPSGLNQLWISDITYIRLQEEFVYLAIILDRYSRRVIGWSLSRHIDMELSLSALRMALSNREVLPGLIHHSDRGVQYASKAYIELLEEHKIAISMSRRGNPYDNAFAESFMKTLKYEEVLLNEYGDYREAQGNIARFIEEVYNRKRLHSSIGYLPPVEFEARVEHEISPASHPTEGHHHHHH”, the “soluble on expression in E. coli” value is reported as “soluble”.
With “MSLASNVLLQASRLGEMVIKRGGATGLMVHRDTKENNLNVKFKFTSENQERIKAIMDIYPEGHKAGALIPLLDLAQRQHGWLPISAMHEVAKILEVPRMRAYEVATFYTMFNRQPVGKYFLQVCATTPCMLRGAETITETIEKKLGIHAGETTKDGLFTLAEVECLGACVNAPMIQINDDYFEDLTPKDVNEILDDLKAGRKPAAGPRSGRLAAEPFGELTSLKETPPGPGFGLQAALK” the “soluble on expression in E. coli” value was “not soluble”.
